Reference: a protein production outcome set (Wang et al. 2014)

Experiment: label from the status in PepcDB records

Row | Sequence | protein production
1 | MTSKSEWSNARRIVIILADVLLYNLSIILGFMVKFGREIPSFNFVAYEKSAIYISIFFIFLNLLLGAYIFYNRKISDIIFVTVIGQILMTLTIMIVTFAGRWFTFPRSVLGYSFIIGIIVLSLWRILVYYLYLKVSNERKVVLLGKENQVMRSIQNFMSDKNNKHKVTSVVVSNYYENLKKIIDEIDIVYISSNVDENEKVKLYQLIVKHKKKIFLDTSFENLIMLKPNMMNFEDESIIEVSNFEIQPEENFIKRLFDILVSVCLFVITSPLMLIAAILVKATSPGPVIYKQTRITLDQREFSILKFRTMSATAEAKSGPVLSTSNDSRVTTVGKYLRALRIDELPQLINVIRGDMSIVGPRPERPFFVDQFNQENPNYYLRHNVRAGITGYAQVYGKYASDYNSKLNFDLLYIKNYSLLLDMKILLQTIKILFDKVSSRGLDESEEREELTMDYCKENAIRIYR | failed
2 | MQYGAIVVTFNRKQLLIESITALLNQTVPPAKIIIIDNHSTDGTKAELQTADILANPSVDYRYLTKNIGGAGGFARGMQIAAADPNLDWASMSDDDAIFEPDYFEKLIAYQQDHPNRQILTGSVYIEDGRLQADQRNRFTNWSTFQAQAVPEREYRGNFEFDQYTFCGVFMSVAVIKQVGVADAGYFIWWDDCEYAVRTAKLSRPVNVSAAKLIHKTALPSLDFKSKFVPDWRLYYGQRNRLITIKRWRANSLVSLGWLLGFYARLAIQLCGPFYRGYRKMVIRVYLEALRDASREREGLNPNFMPGQKFLEHHHHHH | not failed
3 | MKYLCLIYFDEAKLAAVPAEELAAIVDECMTYSDQLGKAGHYIASHALQSVQTATTLRHQGGRLAMTDGPFAETKEQLGGFYLIEARDLNQALQIAAKIPPGRLGCVEVRPVKEWE | not failed
4 | MAIKFQYNKTSLQQLEKQLKVRVRTLPIIKNKESALRMEVKRCKTEAAGLEERLEKQIQAYEAMFALWNEFDASLIKVSDVHLGIKKIAGVRVPLLENVDFDIRPYSLFNSPKWYSDGIYLLKGLAQTAIEREFMLAKLNLLEHARKKTTQKVNLFEKVQIPGYQDALRKIKRFMEDEENLSKSSQKILKSIQEKRKEAEA | not failed
5 | MSVQLSEGQTFGPRAINVTRTTLVRYAGASGDFNPIHYSDRAAREAGMDGVIAHGMWTMGAALGTVIDWVGGPERVVSQRARFTRPVQVPDTEGGTAIEVAATVRKVSEEAATLAVDVKCDGQSVLGRVEVVVRQGEQ | failed
6 | NSHKVQMEKEIALKQKKFEQKHLQNYTDEIVGLYNEIRGFRHDYAGMLVSMQMAIDSGNLQEIDRIYNEVLVKANHKLRSDKYTYFDLNNIEDSALRSLVAQSIVYARNNGVEFTLEVKDTITKLPIELLDLVRIMSVLLNNAVEGSADSYKKQMEVAVIKMETETVIVIQNSCKMTMTPSGDLFALGFSTKGRNRGVGLNNVKELLDKYNNIILETEMEGSTFRQIIRFKREFE | failed
7 | MNTLRYFDFGAARPVLLLIARIAVVLIFIIFGFPKMMGFDGTVQYMASLGAPMPMLAAIIAVVMEVPAAILIVLGFFTRPLAVLFIFYTLGTAVIGHHYWDMTGDAVGPNMINFWKNVSIAGAFLLLAITGPGAISLDRR | failed
8 | MSAHLLIILPLIIPFVAAVAALLFARWPTVQKGINIVSMGGILAASLGLLSRITEQGIQVTTIGDWPVPFGIVFVVDHLSVVMLIVSAIIGLAVAVYAVPDVDDARVRFGFYPFFNLLMIGINGAFLTGDLFNLYVWFEVMLISSFVLIVLGNTDEQLAGAVKYVVINLVSSLLFLSGVGLVYGMTGTLNMAELSLALSEVGQPGLVTVVAMLFLISFGIKAALFPLFFWLPASYHTPPASVSAFFAGLLTKVGVYALFRVFTLLFTQDVGYTHTLLLWGAGLTMVTGVLGAAVQNDFRRVLSFHIVSQIGYMIMGLALYTPLAILGGVFYIVHHIIVKANLFLVSGVAKRLRGSFSLKSLDGLYAYHPWLAALFIIPAFSLAGFPPLSGFWAKLILTIAGIETGAYWIVTVAVAVGLFTMFSMTKIWVKAFLPGGGGDLADAVSSMGLGTRVMYVPIAGLAALTIMISVFAGPVYDLAERSADELYNSSEYVEAVLNHEKSAADAGPRPGVDGRTGRVHAR | failed
